# Measured values as given in article PMC3999984.
# Tests used:
# [1] = biological target: pT18c-Zip (leucine zipper fragment encoded by control plasmid pUT18C-zip); assay: two-hybrid; bacterial adenylate cyclase two-hybrid (BACTH) in cya- E. coli BTH101; bait RbaW, preys in pKNT25 or pKT25; β-galactosidase activity (units mg^-1 dry weight) of 3 replicate co-transformants
# [2] = biological target: pT18c-RbaW (RbaW in BACTH vector pUT18c) (Rhodobacter capsulatus); assay: as above
Substance,β-galactosidase activity [1] [units mg^-1],β-galactosidase activity [2] [units mg^-1]
KT-Zip (leucine zipper fragment encoded by control plasmid pKT25-zip) (domain or fragment),7340,–
pKNT25-RbaV (RbaV in BACTH vector pKNT25) (natural protein),–,1440
